The target in one assay is hIAPP-T7n (UniProt P00573+P10997). The conditions noted are these: clonal SP encoding the sequence (FIG. 5E). The text has this: Next, we examined if our system could discover inhibitors of other disease-associated APPs. We targeted human islet amyloid polypeptide (hIAPP), which forms amyloid deposits in patients with type-2 diabetes that are hypothesized to contribute to […] dysfunction.^40 To create a selection for hIAPP aggregation inhibitors, we simply cloned hIAPP in place of Aβ42 in our selection circuit (FIG. 2B). We used an SP-encoded CZ6 SICLOPPS library (Z=NDT codon encoded amino acid: R, N, D, C, G, H, I, L, F, S, Y, or V) (˜3×10^6 total sequences). This codon set was chosen to reduce the theoretical library size and facilitate library cloning. The library (total of ˜5×10^6 transformants) was cloned on a SP obtained from an additional 250 hours of PACE using a more stringent selection (FIGS. 10A-10D).
Strain S206035 was used for plasmid cloning, amplification, and phage assays. Strain S220835 was used for SP cloning and plaque assays. Plasmids and SPs were cloned by USER assembly or blunt-end ligation. Competent cells were prepared and transformed using the TSS method. Phage propagation and plaque assays were performed as previously described.^54 Unless otherwise noted, phage propagation assays used an input of […] phage to infect a 2 mL culture of host cells.

For assay [1], the target named is T1, hIAPP (Homo sapiens, UniProt P10997).
T1 construct: A 1 mg portion of amylin trifluoroacetate salt (Bachem) was purchased as lyophilized solid in a vial; purchased Bachem
T1 sequence (P10997 34-70 limits assumed): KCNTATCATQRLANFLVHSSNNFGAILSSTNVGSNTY
In words: ThT fluorescence assay of in vitro hIAPP aggregation. In kind it is biochemical. The conditions noted are these: for effect on aggregation lag time (tlag) / inhibition of hIAPP aggregation (ThT fluorescence): 10 μM hIAPP, PBS pH 6.9, 32° C.; for effect on aggregation lag time (tlag): ThT; for activity relative to MCIP-2a: at higher peptide:hIAPP stoichiometries; for inhibition of hIAPP aggregation (ThT fluorescence): chemically synthesized peptide, quiescent. As for the experimental part:
Preparation of ThT stock solution. To prepare a stock solution of ThT (2-3 mM), 2-4 mg of ThT was added to 3 mL PBS (pH 6.9) in a 15 mL conical tube. The solution was sonicated for 5 min and the supernatant was filtered through a 0.22 μm syringe filter into a 1.5 mL Eppendorf tube. This was the ThT stock solution to be used in following experiments. 2 mL of a 1:200 diluted ThT solution was prepared by adding 10 μL ThT stock solution into 1990 μL PBS. The absorbance of the diluted ThT solution measured at 412 nm was used to calculate the ThT stock concentration using an extinction coefficient (c) of 31600 M^−1 cm^−1.
Preparation of hIAPP stocks. A 1 mg portion of amylin trifluoroacetate salt (Bachem) was purchased as lyophilized solid in a vial. The solid was dissolved in pre-chilled 2562 μL 35 mM sodium acetate (pH 5.3) to a stock concentration of 100 μM on ice. Aliquots of hIAPP were prepared by transferring 200 μL of the 100 μM hIAPP stock solution to low-protein-binding Eppendorf tubes on ice. The aliquots were then immediately snap frozen using liquid N2, lyophilized for 24 h, and stored at −80° C. until use.
Preparation of samples for ThT assays. Using cyclic peptide stock solution (100 μM) and PBS, 400 μL aqueous solution of cyclic peptide was prepared in a low-protein-binding Eppendorf tube to achieve the desired cyclic peptide:hIAPP molar ratio (80 μM for 4:1, 40 μM for 2:1, 20 μM for 1:1, 10 μM for 0.5:1, 0 μM for 0:1). 30 μL of the solution was then loaded to wells on a black clear-bottom low-binding 96-well plate (Corning 3881) to make a triplicate for each condition. This plate loaded with aqueous solutions of cyclic peptides was then ready for adding hIAPP.
Preparation and addition of hIAPP for ThT assays. Using ThT stock solution and PBS, 1 mL ThT solution (10 μM) was prepared in a low-protein-binding Eppendorf tube and chilled on ice. 0.5 mL of the pre-chilled ThT solution was added to one aliquot of lyophilized hIAPP, which was equilibrated to room temperature before opening the tube. Pipetting up and down four times was performed to facilitate complete dissolving of hIAPP. The 0.5 mL hIAPP-containing solution was immediately transferred to the remaining 0.5 mL ThT solution on ice. Pipetting up and down four times was performed to facilitate complete mixing. The resulting 1 mL hIAPP solution, where [hIAPP]=20 μM, was immediately transferred to a 25 mL liquid reservoir. Using a multi-channel pipette, 30 μL of the hIAPP solution was quickly loaded into wells containing aqueous solutions of cyclic peptides on the 96-well plate. Final [hIAPP]=10 μM, [ThT]=5 μM.
ThT assay conditions. The plate was then quickly covered and incubated in a Tecan M Plex microplate reader under quiescent condition at 32° C. for at least 12 h. ThT fluorescence at 480 nm was measured every 5 min through the bottom of the plate using an excitation wavelength of 440 nm.
Fitting of aggregation kinetics. ThT aggregation kinetics data was fit to a sigmoidal function using GraphPad Prism and the aggregation lag time (tlag) and the apparent fibril elongation rate (kapp) calculated as described.^55

In assay [2] the target is T1, hIAPP. The assay is described as follows: Native mass spectrometry (nESI-MS) of peptide-hIAPP interaction. In kind it is binding. To be noted: peptide:hIAPP stoichiometry of complex. As for the experimental part: hIAPP was dissolved in 200 mM ammonium acetate buffer (pH 7.4) to prepare 100 μM hIAPP stock solution. Cyclic peptide was first dissolved in DMSO to 10 mM, then diluted into the buffer to make 1 mM cyclic peptide stock solution. These stock solutions were diluted into the buffer to achieve final concentrations of [hIAPP]=16 μM and [cyclic peptide]=64 μM. The percentage of DMSO in the final solution was 0.64% for all the samples. Prepared samples were incubated quiescently for 20 min at 32° C. Native ESI-MS analysis was then performed on a SELECT SERIES Cyclic IMS Q-TOF (Waters Corp., Wilmslow, U.K.) equipped with nano-ESI interface.
All the samples were analyzed using positive ionization ESI with a capillary voltage of 1.1 kV. The following instrumental parameters were used: source temperature 100° C.; desolvation temperature 250° C.; sampling cone 30 V; backing pressure 2.5 mbar; trap collision energy 6 V; trap DC −4 V; transfer collision energy 4 V. The system was calibrated with NaI cluster ions from a 2 μg/μL 50:50 2-propanol:water solution. Data were acquired over the m/z range of 50-8000 and processed using MassLynxV4.2 (Waters Corp., Wilmslow, U.K.).

Sequence of hIAPP-T7n (P10997+P00573 fused): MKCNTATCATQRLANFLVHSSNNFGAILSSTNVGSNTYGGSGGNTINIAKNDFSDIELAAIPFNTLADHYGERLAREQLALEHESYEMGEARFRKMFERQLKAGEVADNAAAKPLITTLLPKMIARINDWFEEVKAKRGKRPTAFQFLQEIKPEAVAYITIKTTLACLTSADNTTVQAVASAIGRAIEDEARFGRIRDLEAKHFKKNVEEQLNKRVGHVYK

Regarding “CHVVGVI (cyclised; Circular) [cyclo-CHVVGVI]”, the “phage propagation activity on hIAPP-T7n selection” value with hIAPP-T7n is listed as “propagated robustly”. In the assay with hIAPP [1], the “effect on aggregation lag time (tlag)” value is reported as “delaying the aggregation lag time (tlag) in a dose-dependent fashion”, the “activity relative to MCIP-2a” value is reported as “less active than MCIP-2a” and the “inhibition of hIAPP aggregation (ThT fluorescence)” value is “inhibited hIAPP aggregation”. Also, the “complex with hIAPP detected by native mass spectrometry” value in the assay with hIAPP [2] is on record as 1:1 complex.
On to “CRCVFSG (cyclised; Circular) [cyclo-CRCVFSG]”, for which, in the assay with hIAPP [1], the “effect on aggregation lag time (tlag)” value is “extended tlag”, the “activity relative to MCIP-2a” value was “less active than MCIP-2a” and the “inhibition of hIAPP aggregation (ThT fluorescence)” value is on record as “inhibited hNAPP fibrillation”. The “complex with hIAPP detected by native mass spectrometry” value in the assay with hIAPP [2] is recorded as 1:1 complexes.
The corresponding values for “CDLGVFR (cyclised; Circular) [cyclo-CDLGVFR]” are “extended tlag”, “less active than MCIP-2a”, “inhibited hNAPP fibrillation” and 1:1 complexes.

For the origin of these results see patent publication US20250122242A1, “SELECTION SYSTEMS, PEPTIDES DETERMINED THEREWITH, AND METHODS OF USING SAME” (Wisconsin Alumni Research Foundation, priority 2023, published 2025).
